Results taken from a protein production outcome set (Wang et al. 2014).

Assay: label from the status in PepcDB records

Sequence	protein production
SLLGQKSQRYKAEEGLQAQGEAPGLMDVQIPTAEEQKAASSSSTLIMGTLEEVTDSGSPSPPQSPEGASSSLTVTDSTLWSQSDEGSSSNEEEGPSTSPDPAHLESLFREALDEKVAELVRFLLRKYQIKEPVTKAEMLESVIKNYKNHFPDIFSKASECMQVIFGIDVKEVDPAGHSYILVTCLGLSYDGLLGDDQSTPKTGLLIIVLGMILMEGSRAPEEAIWEALSVMGLYDGREHSVYWKLRKLLTQEWVQENYLEYRQAPGSDPVRYEFLWGPRALAETSYVKVLEHVVRVNARVRISYPSLHEEALGEEKGV	not failed
EADMLFSVTVPGSTANLGPGFDSVGMALSRYLKLTVFESDKWSFEAETETVAGIPAGTDNLIYQVAKRTADLYGKEMPPVHVKVWSDIPLARGLGSSAAAIVAAIELADELCGLKLSEADKLHLASLEEGHPDNAGASLVGGLVIGLHEDDETQM	failed
MLDVAIIGGGPAGLSAGLYATRGGLKNVVMFEKGMPGGQITSSSEIENYPGVAQVMDGISFMAPWSEQCMRFGLKHEMVGVEQILKNSDGSFTIKLEGGKTELAKAVIVCTGSAPKKAGFKGEDEFFGKGVSTCATCDGFFYKNKEVAVLGGGDTALEEALYLANICSKIYLIHRRDEFRAAPSTVEKVKKNEKIELITSASVDEVYGDKMGVAGVKVKLKDGSIRDLNVPGIFTFVGLNVRNEILKQDDSKFLCNMEEGGQVSVDLKMQTSVAGLFAAGDLRKDAPKQVICAAGDGAVAALSAMAYIESLH	not failed
FEPRSLITSDKGFVTMTLESLEEIQDVSCAWKELNRKLSSNAVSQITRMCLLKGNMGVCFDVPTTESERLQAEWHDSDWILSVPA	not failed
MNVRHISYFNQWHGALVTNMLAGVLLALALLPGAIAFSFIAGVSPTIGMLSTGLMMLVISLTGNRTLMVSAPSSGVSLVVAPLMSSHGMPAVILATLIMGIIQILMGICRINKLLDYIPTGVVIGFMNALGVLLFTSQLKNILNISNATYVIAVASFLIIWLAQRYIRFMPAPLIAIIILTICAWWLKPDIVYVHHLASLHIHVPMLSFPDAMYDMHIVGISSMYGVTMAIVAVVQTTLTARMMDAVTATKSDKNKETIGQGVANTIVALFGGYGGSALVGQSRFNATMGATSRVSTLITGAFLLISLFVFGDIIGQIPMAVLATVLITISLNTFDRRTISFIKVSPIKHGAIVVLTMLIILSTNNLAAGVVLVSLLYYLIQGFNKRKGRDI	failed
MSHEQPVTVSVARTILPGYTRQANAWAHAGQELAREWPGYLGSGWVRNGVDSAEWHMLYRFADADSLQEWEDSEERRWWIDSARDMMETTRVERHTGIEGWFSRPGDVSVVVPETVVPPRWKQAISIFLPFFPLSLLANFLLHPLTQDWQLVLSVLLNIVILTPLMTYIFLPITTRLLQPWLQAKPRKRPR	failed
MHEKVPKKTYDSELYNGYLAIYNGYGDLRYFTVKIENDICVSLVWNTGMTKKSRGKKRIRINVYRPKIAPAKNKKPKPTKEQLMDPEFSDEDVLTSLGFDDGGYIIPLPKKSLMLINLPDSFRDELQTMHVSFYLREVGKLMFG	failed
STGESSSVSERGSLKQQLREYIRWEEAARNLLGLIEAKENRNHQPPQPKALGNQQPSWDSEDSSNFKD	failed
MQRANREHLEIISLEEISMLVSSDFDLPEVLQHVTAKVATQLKVSVCNIYLREGDEVVLAATHGFDPAFIGKIRIKIGDGITGSVARDGQYISLSRASQDPRYRYFPELQEEKYNSMLSFPIGDKKEVYGVINLNTTSIRSFHEDEIYFVSIIANLILTAIKLRQQVASSRKAAEA	not failed
MAKNIQAIRGMNDYLPGETAIWQRIEGTLKNVLGSYGYSEIRLPIVEQTPLFKRAIGEVTDVVEKEMYTFEDRNGDSLTLRPEGTAGCVRAGIEHGLLYNQEQRLWYIGPMFRHERPQKGRYRQFHQLGCEVFGLQGPDIDAELIMLTARWWRALGISEHVTLELNSIGSLEARANYRDALVAFLEQHKEKLDEDCKRRMYTNPLRVLDSKNPEVQALLNDAPALGDYLDEESREHFAGLCKLLESAGIAYTVNQRLVRGLDYYNRTVFEWVTNSLGSQGTVCAGGRYDGLVEQLGGRATPAVGFAMGLERLVLLVQAVNPEFKADPVVDIYLVASGADTQSAAMALAERLRDELPGVKLMTNHGGGNFKKQFARADKWGARVAVVLGESEVANGTAVVKDLRSGEQTAVAQDSVAAHLRTLLG	not failed
MHGKDPFSDFREFINTMESRVQELGKAYGVEHLAGPQGFAVRYLFENQDKEIFIKDIEKKLSISKSVASNLVKRMEKNGFVELVTSDKDKRYKYVHLTDLGKKKAQDVGHFREAIHGQLLDGISKEDAETAFRVFHQIRKNLEKNKELEHHHHHH	not failed
MEAFTFNTTELILLSATGVLLIIQLIYYLGLYNRIHTHNLAVGKDEVHFGRELPPLSVVICARNESENLRRNLPTILKQDYPDFEVIVINDGSTDESEDLLSALEEEYPNLYHSFTPDSARYISRKKLALTLGIKASKHDWLVFTEADCAPVSNQWLRRMARNFTSSTDIVLGYSGYERGKGWLHKRASFDSLFTSLRYLGFALAGKPYMGIGRNLAYRKELFFKVKGFSTHLNMQRGEDDLFINQVANENNTRVETSPDAVIRMQPVERYKDWKEEKVSYMATSRFYKGSQRWLLGLETGTRLLFYAACLVGIVFGILSFHWLVVGLSLLLWFVRYSVQAYVINKTAGEMGDNRSYYFTLPVFDIIRPLQTLKLKLYRLYRGKGDFMRR	failed
MQEKYNFGKVSSQHKNYSKIETMLRPKGFDKLDHYFRTELDIDLTDETIELLLNSVKAAFGKLFYGAEQRARWNGRDFIALADLNITKALEEHIKNFQKIEQDMGVDELLEYIAFIPPVEMNVGEDLKSEYRNIMGGLLLMHADVIKKATGERKPSREAMEFVAQIVDKVF	not failed
MAQGNPLTPEEIELLHAGDEENDNTDTLMVIRVPNDGSSATAISIPRDTYVHDENVGNLKINGVYRAYKNRKASELVNSGESDQKHIDELSKEAGRKALISSISDLTGVTVDHYAEVGLLGFVLLTNAVGGVDVCLNNDVYDEFSGADFKAGQQTLRDGQALAFVRQRHGLPRGDLDRIVRQQAFMASLVAKVLSSGTLTNPSKLSDLGEAVSRSVVIDKNWDVMSFANQLQNLAGGNVKFNTIPVTSIDGVGDYGESVVTVDKNQVHQFFDRLLNGNNGEETPTSDSEAPAENPHTSTTIDVLNATSTTGLASQVAGHLSAKHYTIGNIGNALEGMYHESQIVAADPNNEAVKAIAAELGGLPITQRNDLEHHHHHH	failed
MYKDKVAVIMSVYKSDNPIDFNVAVNSIIRQTLKCDIFIYQDGPVSRELKSAINRFRKFNNIFIFVSEENKGLAYALNYLIDSCLLNNYQYIARMDSDDISHKNRMSIQVNFLEDNSDIHVVGSYCKEFGADCSLAEKKLPITHNDLLNFSITRCPFIHPSVMFRTSIFYNGLRYPVNTKYTEDMAFWFILLDLGYKFENIPETLIDYRMTENTVLRRRGFDKALSEVFIRFKYMIKFKKITVKNVSFIIGRFVFHLLPPNAIKYLYKKMR	failed
MVSTIIISFFIIIIAVVILVLVATRSKSPSSGGRKKVKGRAVLMKEASRRLAQNPHDIEGLFIMGDIYYQDQDWEKAYTAYSALLDRMKPLEMNKQLDVAIRYGICALKTNRLPEAKKGFLLAETINPKNLDVSYNLGYIYYLEKDYEKAVKFFKRTLILEPNSFLATKYLGYTLQHLHKYTEALPALKKALDFKPDDKEVLFAMGECFYETEATDRCLKILNHLRVDPVFGPQASLYTGMIRAKADQLERAIEDFQIGLKHTGIPMDISNELKYRLAQAYIKTQEIGQALHLLKEIQSISPGYKDAATLIMRYQELNKNKNLQIYLMSGQSEFVALCRKIVARFYPKAKVKIVDISVLAAYTDIVAEIDTSRFSDTVIFRFFRSQGTVGELLLRELHARLKEVKGGTGICMSAGTFTEEAVRFSEGRPLDLYDKTRLSNVLNSLK	failed
MHATTLPSGIRAGRHERTPPPMTVQTGQTRQTRSRTWTRVTGTAAVVAAALTATVTPSVAAPAETPPASVTAAAADVGYDTWQRDCRAVMDAALPYLKERIAGSAPGEKQAVVLDIDNTSLETDFGFSYPQPANRPVLEVAEYAQEHGVALFFVTARPGIIEAPTEWNLAHAGYESSGLYVRGFLDLFKDVAEYKTEQRAEIESKGYTIIANIGNSASDLSGGHAEKTFKLPDYDGQLS	failed
MKVIGINGSPRRAGNTSIMLKTIFEVLEDEGIETELIQVGGTNIKGCRACYACIKNKNSECSTKGDGFNEIFAKMVEADGMILGSPTYFADITPELKALIDRAGFVSRTNGQLFRHKVGASVVSLRRGGGIHAYDSINHLFQICQMFMVGSTYWNLGFGGRDGGEVVNDTEGMENMRDLGHSMAFLLKKLHNLEHHHHHH	not failed
MLAKIIMKNFKSFKNETVIDFTRINYKFLENNVSNNGVLKGVAFYGANASGKSNVLWAIRFLLDELFGEEKNPVTFMKCLFSDEPEFSLQYFFVIESREIHYLIDFHTEKGIINEELYLDRKLLLQRMGSTAKSGITEKKVYTDLNNKVLFLRTVYFNTGFSGDDKDNNANNNILRQWFDYMQNSIYVNPFLHRGIAYGKQDVVLNKYLENEGVKEINRFFTKYNFEYTLDYLNERKVKDVTEIVNDDNIKLVFFNRKGVNVPIPYVLESHGNQNLLNILPCFLRVVQNSGMLLVDEFSGGLHNELERLLVNYFFLEHHHHHH	failed
MHEIYIYLGIMFMPTYKHSHTPSHDIEDDEDEGTEHLVDELRTNAGAFEEEALVEKLLENLDLDEVEEDEHDAANASFFDSLHFSSIFVLQKREGENESF	failed
MEGSLSRGVEIMKLRELVARSRSIRRFDEHVAVNDATLRDLVELVCYTPSAANRQLLRFLPVTGADMSDKVFPCLKWAGYLEDWPGPEPGERPAAALVMLCRNEDLPGAACDSGIAAQTIMLGAAEKELGGCIVAAIDRERLMASLGIPDAWTVLLVIALGKPAETVVIDQIKPGDDIRYWRDKHGIHHVPKRQVDELLVTAEQLRERG	not failed
MARRWTPQRFVMLRRVRVVICVTTVTLASVLAFGVGARKTVALTVNGETTTVTTYAMSVDRLLQEQQVKVKTHDLVESTSSGTLQNHSVVTVRSAYQTTVTIDGQEVPFWTVATSADQLLGFFEANEAEASKITVNIDNVYNKLTGGLVINQNGPVTVIADGKSSVSPNGKLPAASILDSKGIILNKEDRVSVEKDNGETILRVQRVTHDEQTRTKTVPHGTQTIIDASLQPGEAVVRQEGEDGEIQQTYDVTYVDGVEESEKLINEVTTKIAIDQIIAVGPEKTESSDADNADNGQADSGSNDSDSSKSDKKDESDKKDSDSTDKKNDSSEKNDSTSTPTTEPTQTPTPTPTPTQQQQQTQTTTNPSDGCRLYHPSAAQAQTYAAGAAAQYGWTGQHWTNLVKLWNRESSWLWYSENASSGAYGIPQSLPGSKMASFGANWRDDAAVQIDWGLNYIAQRYGNPTKAREHSEQYGWY	failed
MKIGVDAGGTLIKIVQEKNGERTYSTRLTTEIEEVIQWLNQQDCNNINLTGGQAAMINEQLNCESRVFVEFDAAAKGLEILLEEQGHFLDDYIFTNVGTGTSLHFSNGKAQKRVGGIGTGGGMIQGLGYLLTGISNYKQLTDTAQNGNRDIIDLKVKHIYKDSEPPISGDLTAANFGNVLHHLDESFTDADKLASVIAVVGEVITTMSITVAREHNTKNVAYIGSSFHNNDLLKDVVKDYTVLRGCEPYYIEHGAFSGALGSIHLLEHHHHHH	failed
